Laboratory results: paper doi:10.64898/2025.12.15.693380 (bioRxiv, 2025)

Biological target: the molecule itself
Assay: cryo-EM structure

B1: full-length human NCBE (Na+-dependent Cl-/HCO3- exchanger, SLC4A10) (natural protein, UniProt Q6U841 1-1118, looked up)
chain: MEIKDQGAQMEPLLPTRNDEEAVVDRGGTRSILKTHFEKEDLEGHRTLFIGVHVPLGGRKSHRRHRHRGHKHRKRDRERDSGLEDGRESPSFDTPSQRVQFILGTEDDDEEHIPHDLFTELDEICWREGEDAEWRETARWLKFEEDVEDGGERWSKPYVATLSLHSLFELRSCILNGTVLLDMHANTLEEIADMVLDQQVSSGQLNEDVRHRVHEALMKQHHHQNQKKLTNRIPIVRSFADIGKKQSEPNSMDKNAGQVVSPQSAPACVENKNDVSRENSTVDFSKGLGGQQKGHTSPCGMKQRHEKGPPHQQEREVDLHFMKKIPPGAEASNILVGELEFLDRTVVAFVRLSPAVLLQGLAEVPIPTRFLFILLGPLGKGQQYHEIGRSIATLMTDEVFHDVAYKAKDRNDLVSGIDEFLDQVTVLPPGEWDPSIRIEPPKNVPSQEKRKIPAVPNGTAAHGEAEPHGGHSGPELQRTGRIFGGLILDIKRKAPYFWSDFRDAFSLQCLASFLFLYCACMSPVITFGGLLGEATEGRISAIESLFGASMTGIAYSLFGGQPLTILGSTGPVLVFEKILFKFCKEYGLSYLSLRASIGLWTATLCIILVATDASSLVCYITRFTEEAFASLICIIFIYEALEKLFELSEAYPINMHNDLELLTQYSCNCVEPHNPSNGTLKEWRESNISASDIIWENLTVSECKSLHGEYVGRACGHDHPYVPDVLFWSVILFFSTVTLSATLKQFKTSRYFPTKVRSIVSDFAVFLTILCMVLIDYAIGIPSPKLQVPSVFKPTRDDRGWFVTPLGPNPWWTVIAAIIPALLCTILIFMDQQITAVIINRKEHKLKKGCGYHLDLLMVAVMLGVCSIMGLPWFVAATVLSITHVNSLKLESECSAPGEQPKFLGIREQRVTGLMIFILMGSSVFMTSILKFIPMPVLYGVFLYMGASSLKGIQFFDRIKLFWMPAKHQPDFIYLRHVPLRKVHLFTIIQMSCLGLLWIIKVSRAAIVFPMMVLALVFVRKLMDLLFTKRELSWLDDLMPESKKKKLEDAEKEEEQSMLAMEDEGTVQLPLEGHYRDDPSVINISDEMSKTALWRNLLITADNSKDKESSFPSKSSPS
  stoichiometry N: 2
